Measured values: patent US20140087995A1 (published 2014)
Residue numbers refer to the chain shown, from its start. Numbered stars: 1 amine (or outer) side, 2 acyl side, 3 side chain; on linkers, the order of the positions; unused ones are H or OH. Bridge positions count the residues as written; N and C are the ends. * marks the point of attachment. C20 diacid = O=C(O)CCCCCCCCCCCCCCCCCCC(=O)*; γGlu = O=C(O)[C@H](CCC(=O)[*:2])N[*:1]

T1: human calcitonin receptor (human, UniProt P30988 25-474)
T1 construct: whole, on cells; Used as cell membranes prepared from the transfected BHK cells (Assay VII), not as intact cells; also called hCTR; hCT
T1 sequence (looked up): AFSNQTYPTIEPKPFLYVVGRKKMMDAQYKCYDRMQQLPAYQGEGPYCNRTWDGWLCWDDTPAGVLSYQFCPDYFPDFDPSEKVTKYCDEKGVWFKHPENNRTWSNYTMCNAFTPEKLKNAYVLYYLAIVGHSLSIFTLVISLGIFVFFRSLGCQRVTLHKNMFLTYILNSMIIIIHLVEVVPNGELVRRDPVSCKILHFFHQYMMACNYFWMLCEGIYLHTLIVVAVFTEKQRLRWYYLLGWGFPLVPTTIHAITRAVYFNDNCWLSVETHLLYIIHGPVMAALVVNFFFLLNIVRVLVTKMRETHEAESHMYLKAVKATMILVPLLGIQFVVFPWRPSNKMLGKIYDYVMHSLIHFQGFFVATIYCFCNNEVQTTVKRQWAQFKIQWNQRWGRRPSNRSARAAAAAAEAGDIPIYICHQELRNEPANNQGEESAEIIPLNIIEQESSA

B1: N^α1 N^α1-[(4S)-4-carboxy-4-[[(4S)-4-carboxy-4-(19-carboxynonadecanoylamino)butanoyl]amino]butanoyl]-[Glu14,Arg17,Pro21,Pro27]-h-amylin (peptide)
peptide: {C20 diacid-γGlu-γGlu}-KCNTATCATQRLAEFLRHSSPNFGAIPSSTNVGSNTY-NH2
modifications: disulfide 2-7
SMILES: CC[C@H](C)[C@H](NC(=O)[C@H](C)NC(=O)CNC(=O)[C@H](Cc1ccccc1)NC(=O)[C@H](CC(N)=O)NC(=O)[C@@H]1CCCN1C(=O)[C@H](CO)NC(=O)[C@H](CO)NC(=O)[C@H](Cc1c[nH]cn1)NC(=O)[C@H](CCCNC(=N)N)NC(=O)[C@H](CC(C)C)NC(=O)[C@H](Cc1ccccc1)NC(=O)[C@H](CCC(=O)O)NC(=O)[C@H](C)NC(=O)[C@H](CC(C)C)NC(=O)[C@H](CCCNC(=N)N)NC(=O)[C@H](CCC(N)=O)NC(=O)[C@@H](NC(=O)[C@H](C)NC(=O)[C@@H]1CSSC[C@H](NC(=O)[C@H](CCCCN)NC(=O)CC[C@H](NC(=O)CC[C@H](NC(=O)CCCCCCCCCCCCCCCCCCC(=O)O)C(=O)O)C(=O)O)C(=O)N[C@@H](CC(N)=O)C(=O)N[C@@H]([C@@H](C)O)C(=O)N[C@@H](C)C(=O)N[C@@H]([C@@H](C)O)C(=O)N1)[C@@H](C)O)C(=O)N1CCC[C@H]1C(=O)N[C@@H](CO)C(=O)N[C@@H](CO)C(=O)N[C@H](C(=O)N[C@@H](CC(N)=O)C(=O)N[C@H](C(=O)NCC(=O)N[C@@H](CO)C(=O)N[C@@H](CC(N)=O)C(=O)N[C@H](C(=O)N[C@@H](Cc1ccc(O)cc1)C(N)=O)[C@@H](C)O)C(C)C)[C@@H](C)O
notes: also called compound 15
B2: N^α1-[(4S)-4-carboxy-4-(19-carboxynonadecanoylamino)butanoyl]-[Arg17,Pro21,Pro27,His34]-h-amylin (peptide)
peptide: KCNTATCATQRLANFLRHSSPNFGAIPSSTNVGHNTY
modifications: C20 diacid-gGlu on the alpha amino group of the N-terminal Lys1; disulfide Cys2-Cys7; C-terminal amide
notes: also called compound 40
B3: N^α1-[(4S)-4-carboxy-4-(19-carboxynonadecanoylamino)butanoyl]-[Arg17,Pro21,Pro27,Arg34]-h-amylin (peptide)
peptide: B2 peptide with H34R
modifications: C20 diacid-gGlu on the alpha amino group of the N-terminal Lys1; disulfide Cys2-Cys7; C-terminal amide
notes: also called compound 39
B4: N^α1-[(4S)-4-carboxy-4-(19-carboxynonadecanoylamino)butanoyl]-[Arg17,Pro21,Pro27,Lys35]-h-amylin (peptide)
peptide: B2 peptide with H34S, N35K
modifications: C20 diacid-gGlu on the alpha amino group of the N-terminal Lys1; disulfide Cys2-Cys7; C-terminal amide
notes: also called compound 34
B5: N^α1-[2-[2-[2-[[2-[2-[2-[[(4S)-4-carboxy-4-(19-carboxynonadecanoylamino)butanoyl]amino]ethoxy]ethoxy]acetyl]amino]ethoxy]ethoxy]acetyl]-[Glu14,Arg17,Pro21,Pro27 … (peptide)
peptide: B2 peptide with N14E, H34S
modifications: C20 diacid-gGlu-2xOEG on the alpha amino group of the N-terminal Lys1; disulfide Cys2-Cys7; C-terminal amide
notes: also called compound 19
B6: N^α1-[(4S)-4-carboxy-4-(19-carboxynonadecanoylamino)butanoyl]-[Arg17,Pro21,Pro27,Glu35]-h-amylin (peptide)
peptide: B2 peptide with H34S, N35E
modifications: C20 diacid-gGlu on the alpha amino group of the N-terminal Lys1; disulfide Cys2-Cys7; C-terminal amide
notes: also called compound 23
B7: N^α1-[(4S)-4-carboxy-4-(19-carboxynonadecanoylamino)butanoyl]-[Arg17,Pro21,Pro27,Pro31,Glu35]-h-amylin (peptide)
peptide: {C20 diacid-γGlu}-KCNTATCATQRLANFLRHSSPNFGAIPSSTPVGSETY-NH2
modifications: disulfide 2-7
SMILES: CC[C@H](C)[C@H](NC(=O)[C@H](C)NC(=O)CNC(=O)[C@H](Cc1ccccc1)NC(=O)[C@H](CC(N)=O)NC(=O)[C@@H]1CCCN1C(=O)[C@H](CO)NC(=O)[C@H](CO)NC(=O)[C@H](Cc1c[nH]cn1)NC(=O)[C@H](CCCNC(=N)N)NC(=O)[C@H](CC(C)C)NC(=O)[C@H](Cc1ccccc1)NC(=O)[C@H](CC(N)=O)NC(=O)[C@H](C)NC(=O)[C@H](CC(C)C)NC(=O)[C@H](CCCNC(=N)N)NC(=O)[C@H](CCC(N)=O)NC(=O)[C@@H](NC(=O)[C@H](C)NC(=O)[C@@H]1CSSC[C@H](NC(=O)[C@H](CCCCN)NC(=O)CC[C@H](NC(=O)CCCCCCCCCCCCCCCCCCC(=O)O)C(=O)O)C(=O)N[C@@H](CC(N)=O)C(=O)N[C@@H]([C@@H](C)O)C(=O)N[C@@H](C)C(=O)N[C@@H]([C@@H](C)O)C(=O)N1)[C@@H](C)O)C(=O)N1CCC[C@H]1C(=O)N[C@@H](CO)C(=O)N[C@@H](CO)C(=O)N[C@H](C(=O)N1CCC[C@H]1C(=O)N[C@H](C(=O)NCC(=O)N[C@@H](CO)C(=O)N[C@@H](CCC(=O)O)C(=O)N[C@H](C(=O)N[C@@H](Cc1ccc(O)cc1)C(N)=O)[C@@H](C)O)C(C)C)[C@@H](C)O
notes: also called compound 28

What follows are binders tested against T1, human calcitonin receptor (assay: SPA competition against 125I-calcitonin, membranes with human calcitonin receptor (Assay VII)).
Experimental: Membranes were prepared in the following way; the cells were rinsed with PBS and incubated with Versene for approximately 5 min before harvesting. The cells were flushed with PBS and the cell-suspension was centrifuged for 5 min at 1000 rpm. Cells were homogenized (Ultrathurrax) in a buffer containing 20 mM Na-HEPES and 10 mM EDTA (pH 7.4) and centrifuged at 20.000 rpm for 15 min. The resulting pellet was resuspended, homogenized and centrifuged (20.000 rpm, 15 min) in a buffer containing 20 mM Na-HEPES and 0.1 mM EDTA (pH 7.4, buffer 2). The resulting pellet was resuspended in buffer 2 and protein concentration was measured (BCA protein Assay, Pierce). The homogenate was kept cold during the whole procedure. The membranes were kept at −80° C. until use. Assay was performed in a 384 well Optiplate (PerkinElmer) in a total volume of 40 ul. Membranes were mixed with SPA beads. Final concentration of membranes 35 ng/μL final and Final concentration of SPA beads was 0.05 mg/well. Test-compounds were dissolved in DMSO and further diluted in assay buffer (50 mM Hepes, pH 7.4, 1 mM CaCl2, 5 mM MgCl₂, 0.1% OA and 0.02% Tween20). […] The final mixture was incubated for 120 min with shaking at 400 rpm at 25° C. prior to centrifugation (1500 rpm, 10 min). Samples were analyzed on TopCounter™ (Packard). The […] was calculated using (one site binding competition analysis) GraphPad Prism5 as a measure of receptor affinity.

Row | IC50 | Binder
1 | 15.5 nM | B1
2 | 17.1 nM | B2
3 | 19.3 nM | B3
4 | 73.4 nM | B4
5 | 20.4 nM | B5
6 | 21.8 nM | B6
7 | 12.5 nM | B7
